From US11492610B2, “Sample multiplexing for single-cell RNA sequencing” (California Institute of Technology, priority 2018, dated 2022)

Test system: mouse neural stem cells (NSCs)
Experiment: 96-plex scRNA-seq perturbation experiment (96-sample growth factor screen)
Type: cell-based
Protocol: Neural stem cells for 96-sample growth factor screen were cultured according to the following protocol after previously described cell culture plate reached ˜80% confluence: Stock solutions (10×) were prepared in Neural Stem Cell Basal Medium for every factor and at every concentration used: EGF+bFGF at 200 ng/mL, 40 ng/mL, 8 ng/mL, 1.6 ng/mL; BMP4 (Peprotech) at 200 ng/mL, 40 ng/mL, 8 ng/mL, 0 ng/mL; Retinoic Acid (Sigma) at 10 μM, 2 μM, 0 μM; Scriptaid (Selleckchem)/Decitabine (Selleckchem) at 1 μM/5 μM, 0.2 μM/1 μM, 0 μM/0 μM; Heparin at 20 μg/mL+Penicillin-Streptomycin at 10%. 20 μL each of EGF/bFGF, BMP4, Retinoic acid or Scriptaid/Decitabine, and Heparin/Penicillin-Streptomycin were added to each well of a poly-L-ornithine and laminin coated 96-well plate for a total of 80 μL.
NSCs previously plated on 100 mm culture plates until ˜80% confluent were dissociated by incubation in 4 mL of ESGRO Complete Accutase (Millipore) for 2 minutes at 37° C. After incubation, the Accutase and NSCs were transferred to a 15 mL conical tube and centrifuged at room temperature for 2.5 minutes at 200×g. Supernatant was removed and the cell pellet was resuspended in 2 mL Neural Stem Cell Basal Medium. Centrifugation and medium replacement were repeated one more time and cell concentration was counted on the Countess II Automated Cell Counter. The cell suspension was then diluted with additional Neural Stem Cell Basal Medium to a concentration of 18.3 cells/μL. From this stock 120 μL was added to each well of the 96-well plate for a total of ˜2,200 cells/well. Supplemented media for every well in the 96-well plate was replaced every other day during the 5-day incubation.
Before NSC dissociation and fixation, 80 μL of ice-cold methanol was added to each well of twelve 8-well PCR strips on an ice block. After 5 days in culture, all media in the 96-well plate were removed and the cells washed three times with 150 μL of Neural Stem Cell Basal Medium. Any remaining media were removed and replaced with 20 μL of Accutase and incubated at 37° C. for 2 minutes with gentle pipetting to help break cell clumps. […]
Cells for the 96-sample perturbation experiment were prepared as described above. […] Sequencing libraries were prepared as described, with sample tag libraries sequenced on two lanes of Illumina MiSeq using MiSeq v3 150 cycle kits (26×98 bp reads), and cDNA libraries pooled and sequenced on Illumina HiSeq 4000 using two HiSeq 3000/4000 SBS 300 cycle kits (2×150 bp reads).
For the 96-sample perturbation experiment, the ScanPy Python package (version 1.0.4) was used to process the filtered genes×cells matrix produced by cellranger. […] The per-cell read counts were regressed out and the data scaled to unit variance. […]

B1: BMP4: bone morphogenic protein 4 (BMP4), Peprotech (protein, UniProt P12644 293-408, looked up)
Bone morphogenetic protein 4: SPKHHSQRARKKNKNCRRHSLYVDFSDVGWNDWIVAPPGYQAFYCHGDCPFPLADHLNSTNHAIVQTLVNSVNSSIPKACCVPTELSAISMLYLDEYDKVVLKNYQEMVVEGCGCR
- cell proliferation / phenotype across the perturbation array (Example 2 analysis, FIG. 3E, 5A): high proliferation under low BMP4 conditions
- effect on cell populations, PCA of relative cluster abundance × sample matrix (Example 2 analysis, FIG. 5B): graded effect
- cell proliferation / phenotype across the perturbation array (Example 5 re-analysis (UMAP), FIG. 24, 27): high proliferation under low BMP4 conditions
- effect on cell populations, PCA of relative cluster abundance × sample matrix (Example 5 re-analysis (UMAP), FIG. 24B): graded effect
